B1: serA49: E. coli PGD variant with replacement G349P (protein, UniProt P0A9T0 2-410, looked up, variant G349P)
D-3-phosphoglycerate …: AKVSLEKDKIKFLLVEGVHQKALESLRAAGYTNIEFHKGALDDEQLKESIRDAHFIGLRSRTHLTEDVINAAEKLVAIGCFCIGTNQVDLDAAAKRGIPVFNAPFSNTRSVAELVIGELLLLLRGVPEANAKAHRGVWNKLAAGSFEARGKKLGIIGYGHIGTQLGILAESLGMYVYFYDIENKLPLGNATQVQHLSDLLNMSDVVSLHVPENPSTKNMMGAKEISLMKPGSLLINASRGTVVDIPALCDALASKHLAGAAIDVFPTEPATNSDPFTSPLCEFDNVLLTPHIGGSTQEAQENIGLEVAGKLIKYSDNGSTLSAVNFPEVSLPLHGGRRLMHIHENRPPVLTALNKIFAEQGVNIAAQYLQTSAQMGYVVIDIEADEDVAEKALQAMKAIPGTIRARLLY
B2: serA410: E. coli PGD variant with replacement G349S (protein, UniProt P0A9T0 2-410, looked up, variant G349S)
D-3-phosphoglycerate …: AKVSLEKDKIKFLLVEGVHQKALESLRAAGYTNIEFHKGALDDEQLKESIRDAHFIGLRSRTHLTEDVINAAEKLVAIGCFCIGTNQVDLDAAAKRGIPVFNAPFSNTRSVAELVIGELLLLLRGVPEANAKAHRGVWNKLAAGSFEARGKKLGIIGYGHIGTQLGILAESLGMYVYFYDIENKLPLGNATQVQHLSDLLNMSDVVSLHVPENPSTKNMMGAKEISLMKPGSLLINASRGTVVDIPALCDALASKHLAGAAIDVFPTEPATNSDPFTSPLCEFDNVLLTPHIGGSTQEAQENIGLEVAGKLIKYSDNGSTLSAVNFPEVSLPLHGGRRLMHIHENRPSVLTALNKIFAEQGVNIAAQYLQTSAQMGYVVIDIEADEDVAEKALQAMKAIPGTIRARLLY
B3: serA411: E. coli PGD variant with replacement G349T (protein, UniProt P0A9T0 2-410, looked up, variant G349T)
D-3-phosphoglycerate …: AKVSLEKDKIKFLLVEGVHQKALESLRAAGYTNIEFHKGALDDEQLKESIRDAHFIGLRSRTHLTEDVINAAEKLVAIGCFCIGTNQVDLDAAAKRGIPVFNAPFSNTRSVAELVIGELLLLLRGVPEANAKAHRGVWNKLAAGSFEARGKKLGIIGYGHIGTQLGILAESLGMYVYFYDIENKLPLGNATQVQHLSDLLNMSDVVSLHVPENPSTKNMMGAKEISLMKPGSLLINASRGTVVDIPALCDALASKHLAGAAIDVFPTEPATNSDPFTSPLCEFDNVLLTPHIGGSTQEAQENIGLEVAGKLIKYSDNGSTLSAVNFPEVSLPLHGGRRLMHIHENRPTVLTALNKIFAEQGVNIAAQYLQTSAQMGYVVIDIEADEDVAEKALQAMKAIPGTIRARLLY
B4: serA412: E. coli PGD variant with replacement G349V (protein, UniProt P0A9T0 2-410, looked up, variant G349V)
D-3-phosphoglycerate …: AKVSLEKDKIKFLLVEGVHQKALESLRAAGYTNIEFHKGALDDEQLKESIRDAHFIGLRSRTHLTEDVINAAEKLVAIGCFCIGTNQVDLDAAAKRGIPVFNAPFSNTRSVAELVIGELLLLLRGVPEANAKAHRGVWNKLAAGSFEARGKKLGIIGYGHIGTQLGILAESLGMYVYFYDIENKLPLGNATQVQHLSDLLNMSDVVSLHVPENPSTKNMMGAKEISLMKPGSLLINASRGTVVDIPALCDALASKHLAGAAIDVFPTEPATNSDPFTSPLCEFDNVLLTPHIGGSTQEAQENIGLEVAGKLIKYSDNGSTLSAVNFPEVSLPLHGGRRLMHIHENRPVVLTALNKIFAEQGVNIAAQYLQTSAQMGYVVIDIEADEDVAEKALQAMKAIPGTIRARLLY
B5: serA414: E. coli PGD variant with replacement G349A (protein, UniProt P0A9T0 2-410, looked up, variant G349A)
D-3-phosphoglycerate …: AKVSLEKDKIKFLLVEGVHQKALESLRAAGYTNIEFHKGALDDEQLKESIRDAHFIGLRSRTHLTEDVINAAEKLVAIGCFCIGTNQVDLDAAAKRGIPVFNAPFSNTRSVAELVIGELLLLLRGVPEANAKAHRGVWNKLAAGSFEARGKKLGIIGYGHIGTQLGILAESLGMYVYFYDIENKLPLGNATQVQHLSDLLNMSDVVSLHVPENPSTKNMMGAKEISLMKPGSLLINASRGTVVDIPALCDALASKHLAGAAIDVFPTEPATNSDPFTSPLCEFDNVLLTPHIGGSTQEAQENIGLEVAGKLIKYSDNGSTLSAVNFPEVSLPLHGGRRLMHIHENRPAVLTALNKIFAEQGVNIAAQYLQTSAQMGYVVIDIEADEDVAEKALQAMKAIPGTIRARLLY
B6: serA415: E. coli PGD variant with replacement G349K (protein, UniProt P0A9T0 2-410, looked up, variant G349K)
D-3-phosphoglycerate …: AKVSLEKDKIKFLLVEGVHQKALESLRAAGYTNIEFHKGALDDEQLKESIRDAHFIGLRSRTHLTEDVINAAEKLVAIGCFCIGTNQVDLDAAAKRGIPVFNAPFSNTRSVAELVIGELLLLLRGVPEANAKAHRGVWNKLAAGSFEARGKKLGIIGYGHIGTQLGILAESLGMYVYFYDIENKLPLGNATQVQHLSDLLNMSDVVSLHVPENPSTKNMMGAKEISLMKPGSLLINASRGTVVDIPALCDALASKHLAGAAIDVFPTEPATNSDPFTSPLCEFDNVLLTPHIGGSTQEAQENIGLEVAGKLIKYSDNGSTLSAVNFPEVSLPLHGGRRLMHIHENRPKVLTALNKIFAEQGVNIAAQYLQTSAQMGYVVIDIEADEDVAEKALQAMKAIPGTIRARLLY
B7: serA223: E. coli PGD variant with replacement T372E (protein, UniProt P0A9T0 2-410, looked up, variant T372E)
D-3-phosphoglycerate …: AKVSLEKDKIKFLLVEGVHQKALESLRAAGYTNIEFHKGALDDEQLKESIRDAHFIGLRSRTHLTEDVINAAEKLVAIGCFCIGTNQVDLDAAAKRGIPVFNAPFSNTRSVAELVIGELLLLLRGVPEANAKAHRGVWNKLAAGSFEARGKKLGIIGYGHIGTQLGILAESLGMYVYFYDIENKLPLGNATQVQHLSDLLNMSDVVSLHVPENPSTKNMMGAKEISLMKPGSLLINASRGTVVDIPALCDALASKHLAGAAIDVFPTEPATNSDPFTSPLCEFDNVLLTPHIGGSTQEAQENIGLEVAGKLIKYSDNGSTLSAVNFPEVSLPLHGGRRLMHIHENRPGVLTALNKIFAEQGVNIAAQYLQESAQMGYVVIDIEADEDVAEKALQAMKAIPGTIRARLLY
B8: serA229: E. coli PGD variant with replacement T372R (protein, UniProt P0A9T0 2-410, looked up, variant T372R)
D-3-phosphoglycerate …: AKVSLEKDKIKFLLVEGVHQKALESLRAAGYTNIEFHKGALDDEQLKESIRDAHFIGLRSRTHLTEDVINAAEKLVAIGCFCIGTNQVDLDAAAKRGIPVFNAPFSNTRSVAELVIGELLLLLRGVPEANAKAHRGVWNKLAAGSFEARGKKLGIIGYGHIGTQLGILAESLGMYVYFYDIENKLPLGNATQVQHLSDLLNMSDVVSLHVPENPSTKNMMGAKEISLMKPGSLLINASRGTVVDIPALCDALASKHLAGAAIDVFPTEPATNSDPFTSPLCEFDNVLLTPHIGGSTQEAQENIGLEVAGKLIKYSDNGSTLSAVNFPEVSLPLHGGRRLMHIHENRPGVLTALNKIFAEQGVNIAAQYLQRSAQMGYVVIDIEADEDVAEKALQAMKAIPGTIRARLLY
B9: serA234: E. coli PGD variant with replacement T372K (protein, UniProt P0A9T0 2-410, looked up, variant T372K)
D-3-phosphoglycerate …: AKVSLEKDKIKFLLVEGVHQKALESLRAAGYTNIEFHKGALDDEQLKESIRDAHFIGLRSRTHLTEDVINAAEKLVAIGCFCIGTNQVDLDAAAKRGIPVFNAPFSNTRSVAELVIGELLLLLRGVPEANAKAHRGVWNKLAAGSFEARGKKLGIIGYGHIGTQLGILAESLGMYVYFYDIENKLPLGNATQVQHLSDLLNMSDVVSLHVPENPSTKNMMGAKEISLMKPGSLLINASRGTVVDIPALCDALASKHLAGAAIDVFPTEPATNSDPFTSPLCEFDNVLLTPHIGGSTQEAQENIGLEVAGKLIKYSDNGSTLSAVNFPEVSLPLHGGRRLMHIHENRPGVLTALNKIFAEQGVNIAAQYLQKSAQMGYVVIDIEADEDVAEKALQAMKAIPGTIRARLLY
B10: serA206: E. coli PGD variant with replacement T372P (protein, UniProt P0A9T0 2-410, looked up, variant T372P)
D-3-phosphoglycerate …: AKVSLEKDKIKFLLVEGVHQKALESLRAAGYTNIEFHKGALDDEQLKESIRDAHFIGLRSRTHLTEDVINAAEKLVAIGCFCIGTNQVDLDAAAKRGIPVFNAPFSNTRSVAELVIGELLLLLRGVPEANAKAHRGVWNKLAAGSFEARGKKLGIIGYGHIGTQLGILAESLGMYVYFYDIENKLPLGNATQVQHLSDLLNMSDVVSLHVPENPSTKNMMGAKEISLMKPGSLLINASRGTVVDIPALCDALASKHLAGAAIDVFPTEPATNSDPFTSPLCEFDNVLLTPHIGGSTQEAQENIGLEVAGKLIKYSDNGSTLSAVNFPEVSLPLHGGRRLMHIHENRPGVLTALNKIFAEQGVNIAAQYLQPSAQMGYVVIDIEADEDVAEKALQAMKAIPGTIRARLLY
B11: serA21: E. coli PGD variant with replacement T372D (protein, UniProt P0A9T0 2-410, looked up, variant T372D)
D-3-phosphoglycerate …: AKVSLEKDKIKFLLVEGVHQKALESLRAAGYTNIEFHKGALDDEQLKESIRDAHFIGLRSRTHLTEDVINAAEKLVAIGCFCIGTNQVDLDAAAKRGIPVFNAPFSNTRSVAELVIGELLLLLRGVPEANAKAHRGVWNKLAAGSFEARGKKLGIIGYGHIGTQLGILAESLGMYVYFYDIENKLPLGNATQVQHLSDLLNMSDVVSLHVPENPSTKNMMGAKEISLMKPGSLLINASRGTVVDIPALCDALASKHLAGAAIDVFPTEPATNSDPFTSPLCEFDNVLLTPHIGGSTQEAQENIGLEVAGKLIKYSDNGSTLSAVNFPEVSLPLHGGRRLMHIHENRPGVLTALNKIFAEQGVNIAAQYLQDSAQMGYVVIDIEADEDVAEKALQAMKAIPGTIRARLLY

Assays:
[1] = system: 3-phosphoglycerate dehydrogenase (PGD); test: PGD enzyme activity in crude extracts (McKitrick and Pizer test); format: biochemical, Escherichia coli; settings: crude extract of strain expressing plasmid-encoded serA allele; backward reaction, NADH oxidation at 340 nm
From the text: (§1) For example, the PGD activity can be determined in analogy with the method described by McKitrick and Pizer (1980, J. Bacteriol. 141:235-245). The backward reaction is used to measure the enzyme activity in an assay sample which contains phosphohydroxypyruvate and NADH/H^+. The reaction is started by adding enzyme and is monitored in a spectrophotometer by way of the decrease in extinction at 340 nm which is caused by oxidation of the NADH/H^+.
(§2) At an optical density of 1.0, serA expression was in each case induced by adding 0.4 mM […] and the culture was incubated for a further 3 hours. The cells were subsequently harvested by centrifugation, washed and resuspended in 2 ml of buffer (100 mM K-phosphate, pH 7.0; 10 mM MgCl2; 1 mM dithiothreitol). The cells were disrupted using a French press (Spectronic Instruments, Inc. Rochester, N.Y., USA) at a pressure of 18 000 psi. The crude extracts were clarified by centrifugation at 30 000 g and PGD activity was determined using the McKitrick and Pizer test (1980, J. Bacteriol. 141:235-245).

[2] = target: 3-phosphoglycerate dehydrogenase (PGD); test: Inhibition of PGD activity by L-serine, inhibitor constant Ki; format: biochemical, Escherichia coli; settings: Ki = inhibitor concentration at which activity is 50% of activity without inhibitor
From the text: as §1, §2

| Molecule | Activity [1] | Ki [2] |
| --- | --- | --- |
| B1 | 0.05 units/mg | 6 mM |
| B2 | 0.04 units/mg | 2 mM |
| B3 | 0.04 units/mg | 3 mM |
| B4 | 0.05 units/mg | 5 mM |
| B5 | 0.05 units/mg | 1 mM |
| B6 | 0.03 units/mg | 15 mM |
| B7 | 0.04 units/mg | – |
| B8 | 0.04 units/mg | – |
| B9 | 0.05 units/mg | – |
| B10 | 0.05 units/mg | – |
| B11 | 0.05 units/mg | – |
